US20110312505A1 (University of Texas, published 2011)

What was measured:
[1] = target: T1, human complement protein C1s (human, UniProt P09871 16-688); test: ELISA, antigen-coated plate, titration of purified IgG, anti-human Fc-HRP
T1 construct: Purified protein, bought; coated on ELISA plates, amine-coupled to a CM5 chip, or native in human serum (immunoprecipitation); also called human complement serine protease
T1 sequence (looked up): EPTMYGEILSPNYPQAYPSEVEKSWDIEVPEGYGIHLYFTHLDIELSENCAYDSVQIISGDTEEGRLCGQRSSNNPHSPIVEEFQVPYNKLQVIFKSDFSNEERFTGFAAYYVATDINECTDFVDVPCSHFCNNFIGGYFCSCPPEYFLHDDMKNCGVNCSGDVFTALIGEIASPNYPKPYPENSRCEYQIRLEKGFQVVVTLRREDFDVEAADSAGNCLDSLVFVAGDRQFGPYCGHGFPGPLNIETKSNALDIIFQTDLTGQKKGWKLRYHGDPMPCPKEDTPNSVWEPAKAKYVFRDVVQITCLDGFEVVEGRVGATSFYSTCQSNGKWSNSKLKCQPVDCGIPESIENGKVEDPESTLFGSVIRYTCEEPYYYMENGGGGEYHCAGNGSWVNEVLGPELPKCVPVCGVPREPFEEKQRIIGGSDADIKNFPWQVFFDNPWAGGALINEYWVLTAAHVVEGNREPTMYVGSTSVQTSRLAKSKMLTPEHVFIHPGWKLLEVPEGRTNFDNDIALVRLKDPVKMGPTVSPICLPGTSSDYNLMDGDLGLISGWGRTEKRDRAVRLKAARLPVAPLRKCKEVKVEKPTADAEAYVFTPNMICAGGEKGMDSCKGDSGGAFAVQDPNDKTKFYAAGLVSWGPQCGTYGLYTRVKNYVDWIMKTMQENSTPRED
Method: (§1) Purified IgGs were added to the plate at various concentrations for 1.5 h and washed with PBS/0.05% Tween-20. A polyclonal antibody of goat anti-human Fc region conjugated HRP was used for detection and developed with TMB substrate and stopped with 2N H₂SO₄. The absorbance was measured at 450 nm with a 96 well spectrophotometer. A titration curve of purified IgGs was used to determine an approximate IC50 for binding (Table 8).

[2] = target: T2, human B cell regulator of IgH transcription (BRIGHT) (human, UniProt Q99856 1-593, limits assumed); test: as above
T2 construct: Recombinant, made in bacteria
T2 sequence (looked up): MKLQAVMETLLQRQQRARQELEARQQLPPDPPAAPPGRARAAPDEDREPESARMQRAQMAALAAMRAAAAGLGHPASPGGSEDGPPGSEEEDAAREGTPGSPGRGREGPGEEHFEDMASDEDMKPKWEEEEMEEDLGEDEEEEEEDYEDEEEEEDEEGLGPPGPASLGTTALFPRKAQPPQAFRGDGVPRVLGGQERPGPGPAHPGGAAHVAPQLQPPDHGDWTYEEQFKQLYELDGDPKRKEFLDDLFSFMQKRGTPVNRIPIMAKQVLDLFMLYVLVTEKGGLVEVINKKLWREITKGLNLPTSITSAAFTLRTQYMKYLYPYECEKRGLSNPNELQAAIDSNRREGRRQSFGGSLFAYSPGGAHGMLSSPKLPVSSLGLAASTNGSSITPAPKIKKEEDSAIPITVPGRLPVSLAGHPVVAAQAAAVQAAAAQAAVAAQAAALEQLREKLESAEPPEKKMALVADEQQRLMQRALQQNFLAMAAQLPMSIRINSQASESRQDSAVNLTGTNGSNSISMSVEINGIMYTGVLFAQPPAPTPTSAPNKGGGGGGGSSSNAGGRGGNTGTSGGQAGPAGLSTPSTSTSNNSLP
Method: as §1

[3] = target: T1, human complement protein C1s; test: ELISA, E. coli whole cell lysate with scFv from combinatorial library
[4] = target: T1, human complement protein C1s; test: SPR (BIAcore 3000), C1s amine-coupled to CM5 chip, antibody injected, bivalent model
Method: FIGS. 13A-13B. Kinetic binding analysis of purified anti-C1s IgGs by Surface Plasmon Resonance (Biacore). (FIG. 13A) Anti-C1s 2.1L-2.1HB was injected onto a chip with immobilized C1s at 25 nM, 50 nM, 100 nM or 200 nM and (FIG. 13B) As above for anti-C1s 2.3L-2.2H injected at 2.625 nM, 5.25 nM, 10.5 nM or 21 nM.
(§2) Surface Plasmon Resonance (Biacore) C1s was covalently immobilized on a CM5 chip (GE healthcare, NJ) at a level of approximately 200 response units via standard amine coupling chemistry as described in the manufacturer's protocol. BSA was similarly coupled for baseline correction. All kinetic analyses were performed at 25° C. in HBS-EP (10 mM HEPES, 150 mM NaCl, 50 μM EDTA, 0.005% P-20, pH 7.4) on a BIAcore 3000 (GE healthcare, NJ). Antibodies were injected over immobilized antigen at a flow rate of 50 μl/min or 100 μl/min and the chip was regenerated with a single 10s injection of 20 mM NaOH. Each sensogram was run in duplicate. Kinetic and equilibrium constants were determined by global fitting to a bivalent model using BIAevaluation software (GE healthcare, NJ).

[5] = target: T1, human complement protein C1s; test: SPR (Biacore), IgG on immobilized C1s
Text: Antibodies were recombinantly expressed and purified as monomeric scFv fragments in E. coli and as full-length IgG antibodies in HEK 293F cells. […] Furthermore, the antibodies were suitable for functional assays, such as sandwich ELISA and immunoprecipitation of C1s from human serum (FIGS. 14-15).
as §2

B1: anti-C1s IgG 2.1L-2.1H (antibody, V domains shown)
VH: QVQLQQSGAELARPGASVKMSCKASGYTFTSYTMHWVKQRPGQGLEWIGYINPSSGYTNYNQKFKDKATLTADKSSSTANMQLSSLTSEDSAVYYCARSDRYDGYFDYWGQGTTLTVSS
VL: DVLMTQTPLSLPVSLGDQASISCRSSQSIVHSNGDTYLEWYLQKPGQSPKLLVYKLSNRFSGVPDRFSGSGSGTDFTLKISRVEAEDLGVYYCFQGSHVPLTFGAGTKLEIK
notes: also called C1s 2.1L-2.1H
[1]
  EC50 (half-maximal binding): 50 nM

B2: anti-BRIGHT IgG 1.2L-1.1H (antibody, V domains shown)
VH: EVKLVESGGDLVKPGGSLKLSCAASGFTFSSYGMSWVRQTPDKRLEWVATISSGGSYTYYPDSVKGRFTISRDNAKNTLYLQMSSLKSEDTAMYYCARHDYGNYVDYWGQGTTLTVSS
VL: not shown
notes: Full-length IgG with human kappa and human IgG1 constant regions (pMAZ vectors, HEK293-F); also called BRIGHT 1.2L-1.1H
[2]
  EC50 (half-maximal binding): 1000 nM

B3: anti-C1s scFv 2.2L-2.2H (scFv)
scFv: DIVMTQSPASLAVSLGQRATISCRASESVDSYGNSFMHWYQQKPGQPPKLLIYRASNLESGIPARFSGSGSRTDFTLTINPVEADDVTTYYCQQSNEDPWTFGGGTKLEIKGGGGSGGGGSGGGGSGGGGSEVKLVESGGGFVKPGGSLKLSCAASGFTFSTYGMSWVRQTPEKRLEWVASISAGGTTYYSDSVKGRFTISRDNARNILYLQMSSLRSEDTAMYYCARWLLLAYWGQGTLVTSSA
notes: scFv in E. coli whole cell lysate; also called C1s-2 2L-2H
[3]
  ELISA Signal (OD450 on antigen-coated wells relative to BSA-coated wells): 3.1 fold over BSA wells

B4: anti-C1s scFv 2.3L-2.3H (scFv)
scFv: DIVMTQSPLTLTVTIGQPASISCKSSQSLLDSDGKTYLNWLLQRPGQSPKRLIYLVSKLDSGVPDRFTGSGSGTEFTLKTSRVEAEDLGVYYCWQGTHFPHFGGGTKLEIKGGGGSGGGGSGGGGSGGGGSQVQLQQSGTVLARPGASVKMSCKASGYTFTSYWMHWVKQRPGQGLEWIGAIYPGNSDTSYNQKFKGKAKLTAVTSTSTAYMELSSLTNEDSAVYYCTRSDGYYYFDYWGQGTTLTVSSA
notes: scFv in E. coli whole cell lysate; also called C1s-2 3L-3H
[3]
  ELISA Signal (OD450 on antigen-coated wells relative to BSA-coated wells): 8.8 fold over BSA wells

B5: anti-C1s scFv 2.3L-2.2H (scFv)
scFv: DIVMTQSPLTLTVTIGQPASISCKSSQSLLDSDGKTYLNWLLQRPGQSPKRLIYLVSKLDSGVPDRFTGSGSGTEFTLKTSRVEAEDLGVYYCWQGTHFPHFGGGTKLEIKGGGGSGGGGSGGGGSGGGGSEVKLVESGGGFVKPGGSLKLSCAASGFTFSTYGMSWVRQTPEKRLEWVASISAGGTTYYSDSVKGRFTISRDNARNILYLQMSSLRSEDTAMYYCARWLLLAYWGQGTLVTSSA
notes: scFv in E. coli whole cell lysate; also called C1s-2 3L-2H
[3]
  ELISA Signal (OD450 on antigen-coated wells relative to BSA-coated wells): 4.22 fold over BSA wells

B6: anti-C1s IgG 2.3L-2.3H (antibody, V domains shown)
VH: QVQLQQSGTVLARPGASVKMSCKASGYTFTSYWMHWVKQRPGQGLEWIGAIYPGNSDTSYNQKFKGKAKLTAVTSTSTAYMELSSLTNEDSAVYYCTRSDGYYYFDYWGQGTTLTVSS
VL: not shown
notes: Full-length IgG with human kappa and human IgG1 constant regions (pMAZ vectors, HEK293-F); also called C1s 2.3L-2.3H
[1]
  EC50 (half-maximal binding): 100 nM

B7: anti-C1s IgG 2.3L-2.2H (antibody, V domains shown)
VH: EVKLVESGGGFVKPGGSLKLSCAASGFTFSTYGMSWVRQTPEKRLEWVASISAGGTTYYSDSVKGRFTISRDNARNILYLQMSSLRSEDTAMYYCARWLLLAYWGQGTLVTSSA
VL: not shown
notes: Full-length IgG with human kappa and human IgG1 constant regions (pMAZ vectors, HEK293-F); also called C1s 2.3L-2.2H; 2.3L-2.2H (IgG)
[1]
  EC50 (half-maximal binding): 0.43 nM
[4]
  Kd: 0.43 nM
  koff: 0.00019 s⁻¹
  kon: 450000 M⁻¹ s⁻¹

B8: anti-C1s IgG 2.2L-2.2H (antibody, V domains shown)
VH: EVKLVESGGGFVKPGGSLKLSCAASGFTFSTYGMSWVRQTPEKRLEWVASISAGGTTYYSDSVKGRFTISRDNARNILYLQMSSLRSEDTAMYYCARWLLLAYWGQGTLVTSSA
VL: DIVMTQSPASLAVSLGQRATISCRASESVDSYGNSFMHWYQQKPGQPPKLLIYRASNLESGIPARFSGSGSRTDFTLTINPVEADDVTTYYCQQSNEDPWTFGGGTKLEIK
notes: Full-length IgG made in HEK 293F cells; also called C1s 2.2L with 2.2H
[5]
  Kd: ~500 nM
